# T1: IRF4 DBD S114N (Homo sapiens, UniProt Q15306 20-132, S114N)
# T1 sequence: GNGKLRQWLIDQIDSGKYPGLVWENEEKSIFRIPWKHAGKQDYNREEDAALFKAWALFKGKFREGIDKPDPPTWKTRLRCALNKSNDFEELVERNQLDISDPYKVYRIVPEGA
# T2: IRF4 DBD wild-type (Homo sapiens, UniProt Q15306 20-132)
# T2 sequence: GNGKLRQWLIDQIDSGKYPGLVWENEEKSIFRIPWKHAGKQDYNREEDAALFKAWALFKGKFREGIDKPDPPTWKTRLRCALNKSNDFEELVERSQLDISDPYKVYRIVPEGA
# T3: IRF4 DBD T95A (Homo sapiens, UniProt Q15306 20-132, T95A)
# T3 sequence: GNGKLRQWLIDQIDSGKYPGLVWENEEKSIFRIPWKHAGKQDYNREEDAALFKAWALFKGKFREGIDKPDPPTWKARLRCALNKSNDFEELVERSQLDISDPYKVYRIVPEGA
# T4: IRF4 DBD T95R (Homo sapiens, UniProt Q15306 20-132, T95R)
# T4 sequence: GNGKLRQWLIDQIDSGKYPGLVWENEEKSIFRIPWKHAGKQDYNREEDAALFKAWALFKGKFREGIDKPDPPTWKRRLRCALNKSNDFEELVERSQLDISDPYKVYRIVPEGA
# T5: IRF4 DBD C99A (Homo sapiens, UniProt Q15306 20-132, C99A)
# T5 sequence: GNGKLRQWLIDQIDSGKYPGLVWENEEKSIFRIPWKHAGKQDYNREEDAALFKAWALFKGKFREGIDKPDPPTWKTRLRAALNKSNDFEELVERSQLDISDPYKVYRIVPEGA
# T6: IRF4 DBD T95K (Homo sapiens, UniProt Q15306 20-132, T95K)
# T6 sequence: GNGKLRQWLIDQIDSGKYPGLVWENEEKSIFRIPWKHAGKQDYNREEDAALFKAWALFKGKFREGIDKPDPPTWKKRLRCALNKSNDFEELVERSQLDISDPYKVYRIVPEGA
# T7: IRF4 DBD S114R (Homo sapiens, UniProt Q15306 20-132, S114R)
# T7 sequence: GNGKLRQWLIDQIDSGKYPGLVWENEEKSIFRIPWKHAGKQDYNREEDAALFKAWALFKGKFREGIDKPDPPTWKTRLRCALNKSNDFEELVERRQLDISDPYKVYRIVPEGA
# T8: IRF4 DBD L70V (Homo sapiens, UniProt Q15306 20-132, L70V)
# T8 sequence: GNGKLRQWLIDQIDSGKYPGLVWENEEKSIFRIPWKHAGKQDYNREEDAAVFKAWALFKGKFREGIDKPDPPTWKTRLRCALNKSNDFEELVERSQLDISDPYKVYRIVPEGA
# T9: IRF4 DBD D106Y (Homo sapiens, UniProt Q15306 20-132, D106Y)
# T9 sequence: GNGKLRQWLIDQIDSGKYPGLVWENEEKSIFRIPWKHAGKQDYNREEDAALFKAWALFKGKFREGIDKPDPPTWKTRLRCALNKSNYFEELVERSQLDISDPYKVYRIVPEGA
# T10: IRF4 DBD C99R (Homo sapiens, UniProt Q15306 20-132, C99R)
# T10 sequence: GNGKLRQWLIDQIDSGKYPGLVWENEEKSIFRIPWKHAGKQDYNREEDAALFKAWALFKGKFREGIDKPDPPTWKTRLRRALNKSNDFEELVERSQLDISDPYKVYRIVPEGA
# Experiments:
# IRF4 DBD S114N = target: T1, IRF4 DBD S114N; experiment: FP; FP: PBS + 0.05% Tween20, 5 nM DNA, 1 h, room temperature; SPR: Biacore S200, SA chip, protein 0.1-4500 nM, running buffer not given in material; errors are SD; conditions: protein: recombinant; tags: N-terminal His8-linker-His8-TEV, cleaved; label: 3' fluorescein (FAM); hairpin, TTTT loop
# IRF4 DBD wild-type = target: T2, IRF4 DBD wild-type; experiment: as above; conditions: protein: recombinant; tags: N-terminal His8-linker-His8-TEV, cleaved; label: 3' fluorescein (FAM); hairpin, TTTT loop
# IRF4 DBD T95A = target: T3, IRF4 DBD T95A; experiment: as above; conditions: protein: recombinant; tags: N-terminal His8-linker-His8-TEV, cleaved; label: 3' fluorescein (FAM); hairpin, TTTT loop
# IRF4 DBD T95R [1] = target: T4, IRF4 DBD T95R; experiment: as above; conditions: protein: recombinant; tags: N-terminal His8-linker-His8-TEV, cleaved; label: 3' fluorescein (FAM); hairpin, TTTT loop
# IRF4 DBD C99A = target: T5, IRF4 DBD C99A; experiment: as above; conditions: protein: recombinant; tags: N-terminal His8-linker-His8-TEV, cleaved; label: 3' fluorescein (FAM); hairpin, TTTT loop
# IRF4 DBD T95K = target: T6, IRF4 DBD T95K; experiment: as above; conditions: protein: recombinant; tags: N-terminal His8-linker-His8-TEV, cleaved; label: 3' fluorescein (FAM); hairpin, TTTT loop
# IRF4 DBD S114R = target: T7, IRF4 DBD S114R; experiment: as above; conditions: protein: recombinant; tags: N-terminal His8-linker-His8-TEV, cleaved; label: 3' fluorescein (FAM); hairpin, TTTT loop
# IRF4 DBD L70V = target: T8, IRF4 DBD L70V; experiment: as above; conditions: protein: recombinant; tags: N-terminal His8-linker-His8-TEV, cleaved; label: 3' fluorescein (FAM); hairpin, TTTT loop
# IRF4 DBD D106Y = target: T9, IRF4 DBD D106Y; experiment: as above; conditions: protein: recombinant; tags: N-terminal His8-linker-His8-TEV, cleaved; label: 3' fluorescein (FAM); hairpin, TTTT loop
# IRF4 DBD T95R [2] = target: T4, IRF4 DBD T95R; experiment: SPR two-state kinetic; FP: PBS + 0.05% Tween20, 5 nM DNA, 1 h, room temperature; SPR: Biacore S200, SA chip, protein 0.1-4500 nM, running buffer not given in material; errors are SD; conditions: protein: recombinant; tags: N-terminal His8-linker-His8-TEV, cleaved; label: 3' biotin; hairpin, TTTT loop
# IRF4 DBD C99R = target: T10, IRF4 DBD C99R; experiment: as above; conditions: protein: recombinant; tags: N-terminal His8-linker-His8-TEV, cleaved; label: 3' biotin; hairpin, TTTT loop
Binder,Kd (IRF4 DBD S114N) [nM],Kd (IRF4 DBD wild-type) [nM],Kd (IRF4 DBD T95A) [nM],Kd (IRF4 DBD T95R [1]) [nM],Kd (IRF4 DBD C99A) [nM],Kd (IRF4 DBD T95K) [nM],Kd (IRF4 DBD S114R) [nM],Kd (IRF4 DBD L70V) [nM],Kd (IRF4 DBD D106Y) [nM],Kd (IRF4 DBD T95R [2]) [nM],Kd (IRF4 DBD C99R) [nM]
CTTGGTTTCACTTCCTGCGTTTTCGCAGGAAGTGAAACCAAG (structured_DNA) [IRE hairpin (FAM)],181 ± 14,565 ± 191,105 ± 59,151 ± 72,353 ± 169,298 ± 154,332 ± 162,127 ± 27,219 ± 261,,
CTTGGTTTCACTTCCTGCGTTTTCGCAGGAAGTGAAACCAAG (structured_DNA) [IRE hairpin (biotin)],,,,,,,,,,481 ± 149,660 ± 317
